Assay [1] has as its target T1, hAng-1 WT binding to Tie-2 (Homo sapiens, UniProt Q15389).
T1 construct: Full-length human Ang-2 or Ang-1 protein conjugated to 6× histidine tag (R&D Systems, Minneapolis, Minn.); purchased R&D Systems
T1 sequence (Q15389 20-498 limits assumed): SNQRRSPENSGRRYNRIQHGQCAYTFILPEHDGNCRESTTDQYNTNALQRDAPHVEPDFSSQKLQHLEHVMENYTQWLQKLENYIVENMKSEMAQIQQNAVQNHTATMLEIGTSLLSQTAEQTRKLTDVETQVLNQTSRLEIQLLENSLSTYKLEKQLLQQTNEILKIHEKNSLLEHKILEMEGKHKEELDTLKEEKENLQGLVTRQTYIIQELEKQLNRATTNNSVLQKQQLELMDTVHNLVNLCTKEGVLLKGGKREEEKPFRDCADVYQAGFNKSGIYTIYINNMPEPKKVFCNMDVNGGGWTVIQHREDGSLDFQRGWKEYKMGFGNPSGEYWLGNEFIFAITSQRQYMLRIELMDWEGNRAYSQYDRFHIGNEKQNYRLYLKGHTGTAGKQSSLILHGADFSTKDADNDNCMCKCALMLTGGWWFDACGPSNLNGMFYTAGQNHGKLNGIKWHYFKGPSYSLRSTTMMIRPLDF
The experiment in a line: ELISA blocking of full-length hAng-1 WT binding to hTie-2-mFc. The format is biochemical. As to conditions: 0.6 nM hAng-1-His. As for the experimental part: The ELISA experiments shown in this Example were conducted in a similar manner to the experiments of Example 5. Briefly, hTie-2-mFc (a chimeric construct consisting of human Tie-2 conjugated to mouse IgG; SEQ ID NO:525) was coated onto 96-well plates at a concentration of 2 μg/ml and incubated overnight followed by washing four times in wash buffer (PBS with 0.05% Tween-20). The plate was then blocked with PBS (Irvine Scientific, Santa Ana, Calif.) containing 0.5% BSA (Sigma-Aldrich Corp., St. Louis, Mo.) for one hour at room temperature. In a separate plate, purified anti-Ang-2 antibodies and control constructs, at a starting concentration of 300 nM, were serially diluted by a factor of three across the plate. Full-length human Ang-2 or Ang-1 protein conjugated to 6× histidine tag (R&D Systems, Minneapolis, Minn.) were added to a final concentration of 0.6 nM and incubated for one hour at room temperature. The antibody/antigen mixture was then added to the plate containing hTie-2-mFc and incubated for one hour at room temperature. Detection of Ang-2-His or Ang-1-His bound to hTie-2-mFc protein was determined with Horse-Radish Peroxidase (HRP) conjugated to a-Penta-His antibody (Qiagen, Valencia, Calif.) and developed by standard colorimetric response using tetramethylbenzidine (TMB) substrate (BD Biosciences, San Jose, Calif.). Absorbance was read at OD450 for 0.1 sec. […]
Background: ELISA stands for enzyme-linked immunosorbent assay.

The target in the next assay is T2, Dimeric Human Ang-2FD (Homo sapiens, UniProt O15123).
T2 sequence (O15123 282-496): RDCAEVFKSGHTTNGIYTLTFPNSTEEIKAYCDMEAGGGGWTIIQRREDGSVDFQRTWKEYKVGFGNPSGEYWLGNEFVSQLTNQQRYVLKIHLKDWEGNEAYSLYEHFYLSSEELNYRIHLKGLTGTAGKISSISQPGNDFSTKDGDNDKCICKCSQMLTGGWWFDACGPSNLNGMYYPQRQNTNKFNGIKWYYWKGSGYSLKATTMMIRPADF
The experiment in a line: Surface plasmon resonance binding to dimeric human Ang-2FD conjugated to human IgG1. As to conditions: SPR, room temperature. Here is the method: Equilibrium dissociation constants (KD values) for the binding of selected purified Ang-2 antibodies to dimeric fibrinogen-like domain of human (SEQ ID NO: 519), mouse (Mus musculus; SEQ ID NO: 520) and monkey (Macca fascicularis; SEQ ID NO: 521) Ang-2 (Ang-2FD) conjugated to human IgG1 (SEQ ID NO:528) were determined by surface kinetics using a real-time biosensor surface plasmon resonance assay. Antibody was captured on a goat anti-mouse IgG polyclonal antibody surface, a goat anti-human κ polyclonal antibody (Southern Biotech, Birmingham, Ala.) surface or a goat anti-human IgG polyclonal antibody (Jackson Immuno Research Lab, West Grove, Pa.) surface created through direct amine coupling to a BIACORE™ CM5 sensor chip to form a captured antibody surface. Varying concentrations (ranging from 50 nM to 6.25 nM) of protein were injected at 100 μl/min over captured antibody surface for 90 seconds. Antigen-antibody binding and dissociation were monitored in real time at room temperature. Kinetic analysis was performed to calculate KD and half-life of antigen/antibody complex dissociation.
The above experiment was repeated using selected purified anti-Ang-2 antibodies cloned onto human IgG1.
For orientation: Surface plasmon resonance follows binding to a sensor surface in real time, without labels.

The target in the next assay is T3, Monomeric hAng-2FD (Homo sapiens, UniProt O15123).
T3 sequence (O15123 282-496 limits assumed): T2 sequence (O15123 282-496)
The assay is described as follows: SPR binding to monomeric hAng-2FD at 25° C. and 37° C. As for the experimental part: Additional experiments were conducted to measure the binding properties of selected anti-Ang-2 antibodies to monomeric hAng-2FD at 25° C. and 37° C. Each selected antibody or control construct was captured at a flow rate of 40 μL/min for 1 minute on a goat anti-human IgG polyclonal antibody surface created through direct chemical coupling to a BIACORE™ chip to form a captured antibody surface. Human Ang-2FD at a concentration of 500 nM or 7.8 nM was injected over the captured antibody surface at a flowrate of 60 μL/min for 3 minutes, and antigen-antibody dissociation was monitored in real time for 20 minutes at either 25° C. or 37° C.

Broadly, the IC50 is the concentration that inhibits the measured activity by half. In general, Kd refers to a measure of binding affinity in units of concentration. A low value points to a tighter complex.

Turning to “H1H685P: human anti-Ang-2 antibody, HCVR/LCVR SEQ ID NOs 18/20; also referred to as mAb1 [Antibody H1H685P]”, in assay [1], the IC50 is greater than 300 nM. The Kd with Dimeric Human Ang-2FD worked out at 0.0714 nM. In the assay with Monomeric hAng-2FD (25° C.), the Kd worked out at 0.336 nM; the “ka, binding to monomeric hAng-2FD” value was found to be 244000 M/s; the “kd, binding to monomeric hAng-2FD” value amounted to 7.96e-05 s⁻¹. In the assay with Monomeric hAng-2FD (37° C.), binding was characterised by a dissociation constant (Kd) of 0.342 nM; the “ka, binding to monomeric hAng-2FD” value came to 406000 M/s; the “kd, binding to monomeric hAng-2FD” value amounted to 0.000139 s⁻¹.

Values taken from patent US9926369B2, “Methods for treating hepatocellular cancer by administering an anti-Ang-2 antibody” (Regeneron Pharmaceuticals, Inc., priority 2009, dated 2018).
